Test results taken from paper PMC5588873 (Cell reports, 2017).

B1: TP53BP1 (natural protein, human (endogenous in HeLa), UniProt Q12888 1-1972, looked up)
chain: MDPTGSQLDSDFSQQDTPCLIIEDSQPESQVLEDDSGSHFSMLSRHLPNLQTHKENPVLDVVSNPEQTAGEERGDGNSGFNEHLKENKVADPVDSSNLDTCGSISQVIEQLPQPNRTSSVLGMSVESAPAVEEEKGEELEQKEKEKEEDTSGNTTHSLGAEDTASSQLGFGVLELSQSQDVEENTVPYEVDKEQLQSVTTNSGYTRLSDVDANTAIKHEEQSNEDIPIAEQSSKDIPVTAQPSKDVHVVKEQNPPPARSEDMPFSPKASVAAMEAKEQLSAQELMESGLQIQKSPEPEVLSTQEDLFDQSNKTVSSDGCSTPSREEGGCSLASTPATTLHLLQLSGQRSLVQDSLSTNSSDLVAPSPDAFRSTPFIVPSSPTEQEGRQDKPMDTSVLSEEGGEPFQKKLQSGEPVELENPPLLPESTVSPQASTPISQSTPVFPPGSLPIPSQPQFSHDIFIPSPSLEEQSNDGKKDGDMHSSSLTVECSKTSEIEPKNSPEDLGLSLTGDSCKLMLSTSEYSQSPKMESLSSHRIDEDGENTQIEDTEPMSPVLNSKFVPAENDSILMNPAQDGEVQLSQNDDKTKGDDTDTRDDISILATGCKGREETVAEDVCIDLTCDSGSQAVPSPATRSEALSSVLDQEEAMEIKEHHPEEGSSGSEVEEIPETPCESQGEELKEENMESVPLHLSLTETQSQGLCLQKEMPKKECSEAMEVETSVISIDSPQKLAILDQELEHKEQEAWEEATSEDSSVVIVDVKEPSPRVDVSCEPLEGVEKCSDSQSWEDIAPEIEPCAENRLDTKEEKSVEYEGDLKSGTAETEPVEQDSSQPSLPLVRADDPLRLDQELQQPQTQEKTSNSLTEDSKMANAKQLSSDAEAQKLGKPSAHASQSFCESSSETPFHFTLPKEGDIIPPLTGATPPLIGHLKLEPKRHSTPIGISNYPESTIATSDVMSESMVETHDPILGSGKGDSGAAPDVDDKLCLRMKLVSPETEASEESLQFNLEKPATGERKNGSTAVAESVASPQKTMSVLSCICEARQENEARSEDPPTTPIRGNLLHFPSSQGEEEKEKLEGDHTIRQSQQPMKPISPVKDPVSPASQKMVIQGPSSPQGEAMVTDVLEDQKEGRSTNKENPSKALIERPSQNNIGIQTMECSLRVPETVSAATQTIKNVCEQGTSTVDQNFGKQDATVQTERGSGEKPVSAPGDDTESLHSQGEEEFDMPQPPHGHVLHRHMRTIREVRTLVTRVITDVYYVDGTEVERKVTEETEEPIVECQECETEVSPSQTGGSSGDLGDISSFSSKASSLHRTSSGTSLSAMHSSGSSGKGAGPLRGKTSGTEPADFALPSSRGGPGKLSPRKGVSQTGTPVCEEDGDAGLGIRQGGKAPVTPRGRGRRGRPPSRTTGTRETAVPGPLGIEDISPNLSPDDKSFSRVVPRVPDSTRRTDVGAGALRRSDSPEIPFQAAAGPSDGLDASSPGNSFVGLRVVAKWSSNGYFYSGKITRDVGAGKYKLLFDDGYECDVLGKDILLCDPIPLDTEVTALSEDEYFSAGVVKGHRKESGELYYSIEKEGQRKWYKRMAVILSLEQGNRLREQYGLGPYEAVTPLTKAADISLDNLVEGKRKRRSNVSSPATPTASSSSSTTPTRKITESPRASMGVLSGKRKLITSEEERSPAKRGRKSATVKPGAVGAGEFVSPCESGDNTGEPSALEEQRGPLPLNKTLFLGYAFLLTMATTSDKLASRSKLPDGPTGSSEEEEEFLEIPPFNKQYTESQLRAGAGYILEDFNEAQCNTAYQCLLIADQHCRTRKYFLCLASGIPCVSHVWVHDSCHANQLQNYRNYLLPAGYSLEEQRILDWQPRENPFQNLKVLLVSDQQQNFLELWSEILMTGGAASVKQHHSSAHNKDIALGVFDVVVTDPSCPASVLKCAEALQLPVVSQEWVIQCLIVGERIGFKQHPKYKHDYVSH
B2: AGO2 (natural protein)
chain: not shown

Target: TNRC6A (human (endogenous in HeLa), UniProt Q8NDV7 1-1962)
Experiment: affinity purification with mass spectrometry

Sequence of TNRC6A (Q8NDV7 whole entry): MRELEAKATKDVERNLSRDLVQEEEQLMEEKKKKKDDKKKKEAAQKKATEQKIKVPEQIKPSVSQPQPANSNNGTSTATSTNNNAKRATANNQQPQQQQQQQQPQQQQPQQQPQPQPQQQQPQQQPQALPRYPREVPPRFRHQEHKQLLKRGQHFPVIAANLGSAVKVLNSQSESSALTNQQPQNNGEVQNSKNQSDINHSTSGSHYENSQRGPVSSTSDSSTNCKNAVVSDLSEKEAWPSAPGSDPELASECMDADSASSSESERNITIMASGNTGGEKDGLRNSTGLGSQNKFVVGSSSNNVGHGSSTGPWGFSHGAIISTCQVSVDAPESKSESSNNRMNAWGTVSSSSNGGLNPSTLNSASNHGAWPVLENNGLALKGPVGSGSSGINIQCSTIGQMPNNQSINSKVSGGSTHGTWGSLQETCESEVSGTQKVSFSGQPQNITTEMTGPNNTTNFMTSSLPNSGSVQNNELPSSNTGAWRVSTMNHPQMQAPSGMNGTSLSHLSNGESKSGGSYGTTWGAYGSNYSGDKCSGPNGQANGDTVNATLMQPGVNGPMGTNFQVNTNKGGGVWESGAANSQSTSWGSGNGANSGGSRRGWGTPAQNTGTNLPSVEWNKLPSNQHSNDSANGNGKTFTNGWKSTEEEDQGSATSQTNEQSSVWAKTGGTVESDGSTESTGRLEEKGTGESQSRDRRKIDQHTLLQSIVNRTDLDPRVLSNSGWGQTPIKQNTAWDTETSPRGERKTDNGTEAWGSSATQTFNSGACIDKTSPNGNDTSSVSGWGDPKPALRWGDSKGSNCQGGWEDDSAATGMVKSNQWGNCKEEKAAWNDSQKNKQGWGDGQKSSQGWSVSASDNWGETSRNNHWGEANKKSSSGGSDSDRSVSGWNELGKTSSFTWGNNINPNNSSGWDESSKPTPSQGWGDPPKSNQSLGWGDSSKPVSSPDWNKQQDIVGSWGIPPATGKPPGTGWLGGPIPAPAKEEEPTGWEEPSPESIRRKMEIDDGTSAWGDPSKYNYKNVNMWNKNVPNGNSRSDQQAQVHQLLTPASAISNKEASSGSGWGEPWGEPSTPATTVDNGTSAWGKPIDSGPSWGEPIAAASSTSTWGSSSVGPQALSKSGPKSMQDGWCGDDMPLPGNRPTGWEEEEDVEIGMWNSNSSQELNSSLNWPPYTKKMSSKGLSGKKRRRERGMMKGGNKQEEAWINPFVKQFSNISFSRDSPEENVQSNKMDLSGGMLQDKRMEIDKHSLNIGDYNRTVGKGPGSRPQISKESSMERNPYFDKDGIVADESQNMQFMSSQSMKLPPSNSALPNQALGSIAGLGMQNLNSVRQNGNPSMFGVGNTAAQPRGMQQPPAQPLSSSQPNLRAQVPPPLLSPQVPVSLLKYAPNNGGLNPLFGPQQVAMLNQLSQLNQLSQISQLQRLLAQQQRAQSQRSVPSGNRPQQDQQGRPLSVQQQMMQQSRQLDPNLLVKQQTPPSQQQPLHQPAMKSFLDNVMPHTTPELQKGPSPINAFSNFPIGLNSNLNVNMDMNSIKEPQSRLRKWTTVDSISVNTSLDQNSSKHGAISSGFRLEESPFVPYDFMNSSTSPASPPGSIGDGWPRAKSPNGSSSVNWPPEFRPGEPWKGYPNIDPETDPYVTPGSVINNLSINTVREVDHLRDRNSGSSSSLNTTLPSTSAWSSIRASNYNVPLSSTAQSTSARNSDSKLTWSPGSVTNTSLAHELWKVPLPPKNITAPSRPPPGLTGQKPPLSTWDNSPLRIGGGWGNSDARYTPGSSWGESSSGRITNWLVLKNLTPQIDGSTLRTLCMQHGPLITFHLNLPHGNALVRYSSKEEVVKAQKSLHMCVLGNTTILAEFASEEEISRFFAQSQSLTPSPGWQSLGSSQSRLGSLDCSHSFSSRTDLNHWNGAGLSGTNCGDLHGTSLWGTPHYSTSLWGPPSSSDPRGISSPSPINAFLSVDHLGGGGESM

Row | Binder | stoichiometry N
1 | B1 | ~1.52 per TNRC6A (=1)
2 | B2 | 2.2 per TNRC6A (=1)
